Test results as given in patent publication US20190218553, “VON WILLEBRAND FACTOR (VWF)-TARGETING AGENTS AND METHODS OF USING THE SAME” (DUKE UNIVERSITY, published 2019).

Columns and labels:
[1] = molecular target: T1, von Willebrand factor (VWF) (Homo sapiens, UniProt P04275 P04275:764-2813); assay: filter; Bmax 53%; 2 mM CaCl2, 37 C; conditions: tags: factor VIII free, Haematologic Technologies Inc; label: 5'-32P
Description: (§1) Affinity constants (Kd values) were determined using double-filter nitrocellulose filter binding assays (Rusconi et al, Thromb. Haemost. $4:841-848 (2000)). All binding studies were performed in binding buffer F (20 mM HEPES, pH 7.4, 150 mM NaCl, 2 mM CaCl₂, and 0.01% BSA) at 37° C. Human purified VWF (factor VIII free) was purchased from Haematologic Technologies Inc. (Essex Junction, Vt.) and used in the double-filter nitrocellulose filter binding assay to determine the Kd of the aptamers. Briefly, RNA were end-labeled at the 5′ end with T4 polynucleotide kinase (New England Biolabs, Beverly, Mass.) and [γ³²P] ATP (Amersham Pharmacia Biotech, Piscataway, N.J.) (Fitzwater and Polisky, Methods Enzymol. 267:275-301 (1996)). End-labeled RNA was diluted in binding buffer F, heat denatured at 65° C. for 5 minutes, and subsequently equilibrated at 37° C. Direct binding was performed by incubating trace ³²P-RNA with varying concentrations of VWF protein in binding buffer F at 37° C. for 5 min. The fraction of the nucleic acid-protein complex which bound to the nitrocellulose membrane was quantified with a phosphorimager (Molecular Dynamics, Sunnyvale, Calif.). Non-specific binding of the radiolabeled nucleic acid was subtracted out of the binding such that only specific binding remained (Wong and Lohman, Proc. Natl. Acad. Sci. USA 90:5428-5432 (1993)).

[2] = molecular target: T1, von Willebrand factor (VWF); assay: filter; Bmax 65%; 2 mM CaCl2, 37 C; conditions: tags: factor VIII free, Haematologic Technologies Inc; label: 5'-32P
Description: as §1

[3] = molecular target: T1, von Willebrand factor (VWF); assay: filter; Bmax 21%; 2 mM CaCl2, 37 C; conditions: tags: factor VIII free, Haematologic Technologies Inc; label: 5'-32P
Description: as §1

[4] = molecular target: T1, von Willebrand factor (VWF); assay: filter; Bmax 70%; 2 mM CaCl2, 37 C; conditions: tags: factor VIII free, Haematologic Technologies Inc; label: 5'-32P
Description: as §1

[5] = molecular target: T1, von Willebrand factor (VWF); assay: filter; Bmax 74%; 2 mM CaCl2, 37 C; conditions: tags: factor VIII free human purified VWF, Haematologic Technologies Inc; label: 5'-32P
Description: as §1

[6] = molecular target: T1, von Willebrand factor (VWF); assay: filter; Bmax 44%; 2 mM CaCl2, 37 C; conditions: tags: factor VIII free, Haematologic Technologies Inc; label: 5'-32P
Description: as §1

[7] = molecular target: T1, von Willebrand factor (VWF); assay: filter; Bmax 20%; 2 mM CaCl2, 37 C; conditions: tags: factor VIII free, Haematologic Technologies Inc; label: 5'-32P
Description: as §1

[8] = molecular target: T1, von Willebrand factor (VWF); assay: filter; Bmax 64.8%; 2 mM CaCl2, 37 C; conditions: tags: factor VIII free, Haematologic Technologies Inc; label: 5'-32P
Description: as §1

[9] = molecular target: T1, von Willebrand factor (VWF); assay: filter; Bmax 33%; 2 mM CaCl2, 37 C; conditions: tags: factor VIII free, Haematologic Technologies Inc; label: 5'-32P
Description: as §1

[10] = molecular target: T1, von Willebrand factor (VWF); assay: filter; Bmax 25%; 2 mM CaCl2, 37 C; conditions: tags: factor VIII free, Haematologic Technologies Inc; label: 5'-32P
Description: as §1

[11] = molecular target: T1, von Willebrand factor (VWF); assay: filter; Bmax 43%; 2 mM CaCl2, 37 C; conditions: tags: factor VIII free, Haematologic Technologies Inc; label: 5'-32P
Description: as §1

[12] = molecular target: T1, von Willebrand factor (VWF); assay: filter; NB (no binding); 2 mM CaCl2, 37 C; conditions: tags: factor VIII free, Haematologic Technologies Inc; label: 5'-32P
Description: as §1

For ACGAACUGCCCUCGAUCGACGCACAGACGU (ssRNA, mAfCmGmAmAmCfUmGfCfCfCfUmCmGmAmUmCmGmAfCmGfCmAmCmAmGmAfCmGfU-idT) [T59 vrt4], the Kd [1] was 364 nM.

ACGAACUGCCCUCGAUCGACGCACAGACGU (ssRNA, mAmCmGmAmAmCfUmGfCfCfCmUmCmGmAmUmCmGmAfCmGfCrAmCmAmGmAmCmGfU-idT) [T59 vrt15] gave a Kd [2] of 32.5 nM.

For CCGAACUGCCCUCAGCUAUUAUUAGCUGACGCACAGACGG (ssRNA, 2'-F C and U; 2'-OH A and G; 3' idT) [T30], the Kd [3] was 39.3 nM.

Binder ACGAACUGCCCUCGAUCGACGCACAGACGU (ssRNA, mAmCmGmAmAmCfUmGfCfCfCmUmCmGmAmUmCmGmAfCrGfCmAmCmAmGmAmCmGfU-idT) [T59 vrt17] has a Kd [4] of 13 nM.

Binder ACGAACUGCCCUCGAUCGACGCACAGACGUACACG (ssRNA, 2'-F C9,C10,C11,C20,G21,C22; rest 2'-OMe; 3' idT) [T84 vrt7] has a Kd [5] of 182 nM.

In the case of ACGAACUGCCCUCGAUCGACGCACAGACGU (ssRNA, mAmCmGmAmAmCmUmGfCfCfCmUmCmGmAmUmCmGmAfCfGfCmAmCmAmGmAmCmGfUidT) [DTRI-007], the Kd [6] is reported as 16 nM.

ACGAACUGCCCUCGAUCGACGCACAGACGUUUUUU (ssRNA, mAmCmGmAmAmCmUmGfCfCfCmUmCmGmAmUmCmGmAfCmGfCmAmCmAmGmAmCmGfUmUmUmUmUmU-idT) [T79 vrt3] showed a Kd [7] of 66 nM.

Work on ACGAACUGCCCUCGUAAGACGCACAGACGUUUUUU (ssRNA, mAmCmGmAmAmCmUmGfCfCfCmUmCmGmUmAmAmGmAfCrGfCmAmCmAmGmAmCmGmUmUmUmUmUmUidT) [DTRI-019] yielded a Kd [8] of 4.3 nM.

B1: T25 vrt4 (ssRNA)
RNA: ACGAACUGCCCUCAGCUACUUUCAUGUUGCUGACGCACAGACGU
modifications: mAmCmGrArAfCfUrGfCfCfCfUfCrArGfCfUrAfCfUfUfUfCrAfUrGfUfUrGfCfUrGrAfCrGfCrAfCrArGrAmCmGmU-idT
B1 was tested, and the Kd [9] was 5.9 nM.

B2: T25 vrt24 (ssRNA)
RNA: ACGAACUGCCCUCAGCUACUUUCAUGUUGCUGACGCACAGACGU
modifications: rAfCrGrArAfCfUrGfCfCfCfUfCrArGfCfUrAfCfUfUfUfCrAfUrGfUfUrGfCfUrGrAmCrGfCrAfCrArGrAfCrGfU-idT
In the case of B2, the Kd [10] is reported as 55 nM.

B3: T22 (ssRNA)
RNA: GGACGAACUGCCCUCAGCUACUUUCAUGUUGCUGACGCACAGACGACUCGCUG
modifications: 2'-F C and U; 2'-OH A and G
In the case of B3, the Kd [11] is reported as 28 nM.

B4: T12 (ssRNA)
RNA: GGGAGGAACUGCCCUCAGCUACUUUCAUGUUGCUGACGCACAGACGACUCGCUG
modifications: 2'-F C and U; 2'-OH A and G
B4: no binding [12].
